± gives the uncertainty stated by the source.

This data set in a line: self-splicing fitness, log relative to wild type (ln ratio); higher = more splicing; Tetrahymena group I intron in knt gene, E. coli kanamycin selection, DiMSum; sequences stand for … in CUCUCU…GGAGGGAAAAGUUAUCAGGCAUGCACCUGGUAGCUAGUCUUUAAACCAAUAGAUUGCAUCGGUUUAAAAGGCAAGACCGUCAAAUUGCGGGAAAGGGGUCAACAGCCGUUCAGUACCAAGUCUCAGGGGAAACUUUGAGAUGGCCUUGCAAAGGGUAUGGUAAUAAGCUGACGGACAUGGUCCUAACCACGCAGCCAAGUCCUAAGUCAACAGAUCUUCUGUUGAUAUGGAUGCAGUUCACAGACUAAAUGUCGGUCGGGGAAGAUGUAUUCUUCUCAUAAGAUAUAGUCGGACCUCUCCUUAAUGGGAGCUAGCGGAUGAAGUGAUGCAACACUGGAGCCGCUGGGAACUAAUUUGUAUGCGAAAGUAUAUUGAUUAGUUUUGGAGUACUCGUGGUCG
The procedure, abridged: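 Pooled colonies went to amplicon sequencing on an Illumina HiSeq 2500 after six replicate transformations. The plates were LB agar with 100 μg/mL carbenicillin, 50 μM IPTG and 0.2% rhamnose, with or without 25 μg/mL kanamycin, incubated overnight at 37°C or 30°C. The E. coli BL21(DE3) library had all eight P1ex-region intron nucleotides randomised, the intron placed in the knt kanamycin-resistance gene on pET-22b(+). DiMSum fitness is the error-weighted combination of replicate fold changes, kanamycin against none, normalised to wild type.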

Turning to GCGAAGCAAUAUUACGCAGG, the “self-splicing fitness (ln)” value by setting is: (30 °C) -3.06 ± 0.27; (37 °C) -2.39 ± 0.23.

ACACAGCAAUAUUACGAACC: the “self-splicing fitness (ln)” value is, setting by setting: (30 °C) -2.57 ± 0.48; (37 °C) -1.09 ± 0.45.

Consider GCGGAGCAAUAUUACGAAAU, for which the “self-splicing fitness (ln)” value runs as follows: (30 °C) -2.94 ± 0.5; (37 °C) -1.23 ± 0.42.

As to UAGCAGCAAUAUUACGCGAG, the “self-splicing fitness (ln)” value was -1.83 ± 0.097 (30 °C) and -0.971 ± 0.11 (37 °C).

As for UCUUAGCAAUAUUACGCGGC, the “self-splicing fitness (ln)” value was -2.44 ± 0.3 (30 °C) and -0.722 ± 0.36 (37 °C).

For the sequence UAGGAGCAAUAUUACGGGCG, the “self-splicing fitness (ln)” value by setting is: (30 °C) -2.73 ± 0.19; (37 °C) -2.58 ± 0.23.

Turning to UUAAAGCAAUAUUACGGUAC, the “self-splicing fitness (ln)” value is -2.58 ± 0.22 (30 °C) and -1.06 ± 0.22 (37 °C).

Take CAAAAGCAAUAUUACGACUC: the “self-splicing fitness (ln)” value by setting is: (30 °C) -1.44 ± 0.11; (37 °C) -0.245 ± 0.13.

Turning to GUCCAGCAAUAUUACGUGGU, the “self-splicing fitness (ln)” value is -1.61 ± 0.059 (30 °C) and -1.03 ± 0.064 (37 °C).

On to UCAAAGCAAUAUUACGCGUU, for which the “self-splicing fitness (ln)” value is, setting by setting: (30 °C) -3.65 ± 0.18; (37 °C) -3.64 ± 0.29.

Take GAACAGCAAUAUUACGCAAA: the “self-splicing fitness (ln)” value (30 °C) was -1.37 ± 0.12 and the “self-splicing fitness (ln)” value (37 °C) is -0.529 ± 0.11.

For GUAUAGCAAUAUUACGGCCC, the “self-splicing fitness (ln)” value (37 °C) is -0.246 ± 0.44.

Turning to ACUCAGCAAUAUUACGCCCG, the “self-splicing fitness (ln)” value (30 °C) is -1.62 ± 0.14 and the “self-splicing fitness (ln)” value (37 °C) is -0.599 ± 0.18.

Take GACUAGCAAUAUUACGAAGU: the “self-splicing fitness (ln)” value (30 °C) is -3.08 ± 0.17 and the “self-splicing fitness (ln)” value (37 °C) was -1.82 ± 0.22.

Take AACCAGCAAUAUUACGGUGC: the “self-splicing fitness (ln)” value is -3.48 ± 0.16 (30 °C) and -1.75 ± 0.13 (37 °C).

UAAGAGCAAUAUUACGUGUU: the “self-splicing fitness (ln)” value reads like this: (30 °C) -3.32 ± 0.18; (37 °C) -2.96 ± 0.3.

For GCGAAGCAAUAUUACGCACG, the “self-splicing fitness (ln)” value runs as follows: (30 °C) -2.58 ± 0.21; (37 °C) -3.6 ± 0.35.

Turning to AGCUAGCAAUAUUACGAACA, the “self-splicing fitness (ln)” value by setting is: (30 °C) -2.24 ± 0.23; (37 °C) -0.832 ± 0.2.

On to UGUCAGCAAUAUUACGAGUA, for which the “self-splicing fitness (ln)” value is -1.31 ± 0.066 (30 °C) and -0.775 ± 0.073 (37 °C).

As for AAUAAGCAAUAUUACGUGCA, the “self-splicing fitness (ln)” value runs as follows: (30 °C) -0.334 ± 0.062; (37 °C) 0.0616 ± 0.079.

In the case of UGUGAGCAAUAUUACGCUAA, the “self-splicing fitness (ln)” value runs as follows: (30 °C) -2.39 ± 0.17; (37 °C) -2.04 ± 0.23.

Consider CGCCAGCAAUAUUACGGUGU, for which the “self-splicing fitness (ln)” value is -2.27 ± 0.12 (30 °C) and -2.84 ± 0.26 (37 °C).

Take CCGCAGCAAUAUUACGCAUU: the “self-splicing fitness (ln)” value is -3.28 ± 0.2 (30 °C) and -3.44 ± 0.19 (37 °C).

Consider AACCAGCAAUAUUACGAUGU, for which the “self-splicing fitness (ln)” value (30 °C) was -0.353 ± 0.039 and the “self-splicing fitness (ln)” value (37 °C) worked out at 0.149 ± 0.054.

In the case of UGAAAGCAAUAUUACGGUUU, the “self-splicing fitness (ln)” value (30 °C) was -1.87 ± 0.1 and the “self-splicing fitness (ln)” value (37 °C) was -1.16 ± 0.12.

For the sequence CCCUAGCAAUAUUACGCAUC, the “self-splicing fitness (ln)” value by setting is: (30 °C) -3.26 ± 0.25; (37 °C) -2 ± 0.2.

As for GCUUAGCAAUAUUACGAUCG, the “self-splicing fitness (ln)” value was -1.19 ± 0.1 (30 °C) and -0.254 ± 0.12 (37 °C).

Consider UCUGAGCAAUAUUACGGUAC, for which, under “30 °C”, the “self-splicing fitness (ln)” value was -3.24 ± 0.47.

For GGGGAGCAAUAUUACGCAAU, for the setting “37 °C”, the “self-splicing fitness (ln)” value was -1.66 ± 0.48.

For GCAGAGCAAUAUUACGUCGA, under “37 °C”, the “self-splicing fitness (ln)” value was -1.58 ± 0.21.

On to UACCAGCAAUAUUACGGUAA, for which the “self-splicing fitness (ln)” value reads like this: (30 °C) -1.77 ± 0.076; (37 °C) -0.857 ± 0.074.

Turning to GCCUAGCAAUAUUACGCUGA, the “self-splicing fitness (ln)” value by setting is: (30 °C) -1.69 ± 0.074; (37 °C) -0.266 ± 0.079.

With AUGCAGCAAUAUUACGGGUG, the “self-splicing fitness (ln)” value by setting is: (30 °C) -3.33 ± 0.14; (37 °C) -1.62 ± 0.12.

In the case of CUAAAGCAAUAUUACGUUGA, the “self-splicing fitness (ln)” value is -4.09 ± 0.23 (30 °C) and -2.6 ± 0.29 (37 °C).

For GUGGAGCAAUAUUACGCGUC, the “self-splicing fitness (ln)” value reads like this: (30 °C) -2.82 ± 0.35; (37 °C) -1.76 ± 0.47.

As for AUUAAGCAAUAUUACGUGAA, the “self-splicing fitness (ln)” value (30 °C) was -1.55 ± 0.14 and the “self-splicing fitness (ln)” value (37 °C) was -1.5 ± 0.11.

With CAGUAGCAAUAUUACGUCCC, the “self-splicing fitness (ln)” value (37 °C) is -1.76 ± 0.4.

Turning to AUGAAGCAAUAUUACGAUAU, the “self-splicing fitness (ln)” value is -0.294 ± 0.066 (30 °C) and 0.229 ± 0.083 (37 °C).

CUUAAGCAAUAUUACGUUCU: the “self-splicing fitness (ln)” value by setting is: (30 °C) -2.91 ± 0.19; (37 °C) -2.14 ± 0.21.

Turning to CAUAAGCAAUAUUACGGCAC, the “self-splicing fitness (ln)” value reads like this: (30 °C) -2.85 ± 0.22; (37 °C) -2.59 ± 0.21.

In the case of CAUCAGCAAUAUUACGUAGC, the “self-splicing fitness (ln)” value reads like this: (30 °C) -3.39 ± 0.21; (37 °C) -1.98 ± 0.19.

Consider GCUGAGCAAUAUUACGACGG, for which the “self-splicing fitness (ln)” value by setting is: (30 °C) -1.27 ± 0.17; (37 °C) -0.245 ± 0.27.

Turning to CACUAGCAAUAUUACGUUUG, the “self-splicing fitness (ln)” value reads like this: (30 °C) -2.29 ± 0.079; (37 °C) -1.42 ± 0.11.

With CAACAGCAAUAUUACGGUGG, the “self-splicing fitness (ln)” value (30 °C) is -2.15 ± 0.083 and the “self-splicing fitness (ln)” value (37 °C) was -0.724 ± 0.082.

In the case of GUGCAGCAAUAUUACGGUAA, the “self-splicing fitness (ln)” value by setting is: (30 °C) -1.5 ± 0.18; (37 °C) 0.218 ± 0.14.

For CAUGAGCAAUAUUACGAAUA, the “self-splicing fitness (ln)” value is -1.59 ± 0.18 (30 °C) and -2.72 ± 0.4 (37 °C).

As to AGUCAGCAAUAUUACGUAUC, the “self-splicing fitness (ln)” value is -1.19 ± 0.076 (30 °C) and -0.186 ± 0.11 (37 °C).

As to CUACAGCAAUAUUACGGUCU, the “self-splicing fitness (ln)” value by setting is: (30 °C) -4.27 ± 0.19; (37 °C) -2.13 ± 0.16.

Take UGCGAGCAAUAUUACGCGAA: the “self-splicing fitness (ln)” value (30 °C) is -3.08 ± 0.19 and the “self-splicing fitness (ln)” value (37 °C) is -2.19 ± 0.19.

As to CCCUAGCAAUAUUACGACCU, the “self-splicing fitness (ln)” value (30 °C) was -3.5 ± 0.21 and the “self-splicing fitness (ln)” value (37 °C) was -2.68 ± 0.26.

For the sequence CUCCAGCAAUAUUACGUUAC, the “self-splicing fitness (ln)” value is -3.6 ± 0.18 (30 °C) and -2.42 ± 0.2 (37 °C).

Turning to AUUAAGCAAUAUUACGUUCC, the “self-splicing fitness (ln)” value (30 °C) is -3.07 ± 0.29 and the “self-splicing fitness (ln)” value (37 °C) is -0.839 ± 0.27.

Regarding AGUGAGCAAUAUUACGUGAA, the “self-splicing fitness (ln)” value is, setting by setting: (30 °C) -3.3 ± 0.36; (37 °C) -2.91 ± 0.19.

As for AAUCAGCAAUAUUACGAAGA, the “self-splicing fitness (ln)” value (30 °C) was -0.26 ± 0.087 and the “self-splicing fitness (ln)” value (37 °C) came to 0.0829 ± 0.099.

For AGGAAGCAAUAUUACGGAUA, the “self-splicing fitness (ln)” value (37 °C) was -2.01 ± 0.21.

For the sequence AUAGAGCAAUAUUACGUACU, the “self-splicing fitness (ln)” value runs as follows: (30 °C) -0.65 ± 0.12; (37 °C) 0.124 ± 0.14.

Turning to AAAUAGCAAUAUUACGGCGG, the “self-splicing fitness (ln)” value (30 °C) was -1.48 ± 0.086 and the “self-splicing fitness (ln)” value (37 °C) was -0.335 ± 0.1.

Turning to GCCUAGCAAUAUUACGGGUU, the “self-splicing fitness (ln)” value is -2.93 ± 0.12 (30 °C) and -2.02 ± 0.13 (37 °C).

As for GUGCAGCAAUAUUACGACGG, the “self-splicing fitness (ln)” value (37 °C) is -2.73 ± 0.34.

As to CUUGAGCAAUAUUACGGGUC, the “self-splicing fitness (ln)” value (30 °C) was -3.49 ± 0.19 and the “self-splicing fitness (ln)” value (37 °C) is -2.97 ± 0.25.

Consider CUCUAGCAAUAUUACGGGUU, for which the “self-splicing fitness (ln)” value was -4.28 ± 0.32 (30 °C) and -3.31 ± 0.24 (37 °C).

For the sequence GCUCAGCAAUAUUACGGAAC, the “self-splicing fitness (ln)” value runs as follows: (30 °C) -0.677 ± 0.073; (37 °C) 0.0247 ± 0.11.

The record behind these values is the supplement of paper PMC7877785.
